In the assay the target is Ribonuclease A (Type II-A) from bovine pancreas (bovine) (UniProt P61823). Description: cell-based or functional assay.
Chain of Ribonuclease A (Type II-A) from bovine pancreas (bovine) (P61823 27-150): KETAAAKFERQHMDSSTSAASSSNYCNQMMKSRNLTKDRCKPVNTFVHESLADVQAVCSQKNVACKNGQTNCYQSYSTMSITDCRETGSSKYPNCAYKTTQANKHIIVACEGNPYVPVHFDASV

In the case of Biofact RNase inhibitor, the IC50 for RNase A activity inhibition, HeLa total RNA cleavage, agarose gel image worked out at 257 nM; the inhibition level, RNA probe assay (fluorophore and quencher), inhibitor at 1 µM amounted to 35.8%.
“RNaseOUT recombinant ribonuclease inhibitor” registered an IC50 for RNase A activity inhibition, HeLa total RNA cleavage, agarose gel image of 381 nM; an inhibition level, RNA probe assay (fluorophore and quencher), inhibitor at 1 µM of 27.2%.

Source of the values: patent US20260217863A1, “ANTIBODY OR PEPTIDE BINDING SPECIFICALLY TO RNASE A, IMMUNOASSAY DEVICE AND METHOD FOR DETECTING RNASE A, AND METHOD FOR COLLECTING RNASE A” (UIF (University Industry Foundation), Yonsei University, priority 2022, published 2026).
